Laboratory results as given in US20250122311A1 (YEDA RESEARCH AND DEVELOPMENT, published 2025).
Residue numbers refer to the chain shown, from its start.

What was measured:
[1] = target: T1, hen-egg white lysozyme (hen, UniProt P00698 19-147); assay: yeast surface display of scFv, 240 nM lysozyme
T1 construct: also called HEWL

[2] = target: T1, hen-egg white lysozyme; assay: surface plasmon resonance, Fab
[3] = target: T1, hen-egg white lysozyme; assay: bilayer interferometry, IgG1 loaded on the sensor at 1 ug/mL, lysozyme at 1000, 250, 100, 25 and 10 nM
Experimental: FIGS. 5A-D present anti lysozyme antibody SDR-grafting: FIG. 5A. […] FIG. 5B. […] FIG. 5C. […] FIG. 5D. […] Lysozyme was at concentrations of […] and 1 μg/mL antibody was loaded onto the sensor.

[4] = target: T2, recombinant prostate-specific antigen (PSA) (human, UniProt P07288 25-261, limits assumed); assay: ELISA of the protein G purified antibody on recombinant PSA
T2 construct: also called recombinant PSA; recombinantly produced PSA

[5] = target: T2, recombinant prostate-specific antigen …; assay: immunoprecipitation with protein G after incubation with recombinant PSA; blot developed with a commercial anti-PSA antibody
Experimental: (§1) FIGS. 4A-E present anti-PSA clone 10 humanization: FIG. 4A. Four anti-PSA antibodies were expressed as chimeras and expression was measured through ELISA of the supernatant SEQ ID Nos.: 83/84, 85/86, 87/88, 81/82). […] FIG. 4B. Expression of five humanized designs for clone 10 was measured through ELISA of the supernatant. […] FIG. 4C. […] FIG. 4D. […] Membrane was developed with a commercial anti-PSA antibody. […] FIG. 4E.

[6] = target: T3, natively expressed PSA (supernatant of LNCaP cells) (human, UniProt P07288 25-261); assay: immunoprecipitation with protein G after overnight incubation with LNCaP supernatant; blot developed with a commercial anti-PSA antibody
T3 construct: also called native PSA
Experimental: as §1

T1 sequence (P00698 19-147 limits assumed): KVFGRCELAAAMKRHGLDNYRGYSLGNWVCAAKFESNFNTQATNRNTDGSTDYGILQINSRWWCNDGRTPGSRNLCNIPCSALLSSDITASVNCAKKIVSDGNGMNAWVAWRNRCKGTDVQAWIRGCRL
T2 sequence (P07288 25-261 limits assumed): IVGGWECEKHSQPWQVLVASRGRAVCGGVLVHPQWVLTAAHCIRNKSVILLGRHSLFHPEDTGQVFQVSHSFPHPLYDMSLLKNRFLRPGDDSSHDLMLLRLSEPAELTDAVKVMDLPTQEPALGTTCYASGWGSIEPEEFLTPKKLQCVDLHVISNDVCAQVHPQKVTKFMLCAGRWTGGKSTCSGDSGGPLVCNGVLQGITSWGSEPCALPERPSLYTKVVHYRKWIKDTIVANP
T3 sequence (P07288 25-261 limits assumed): as above

B1: Anti-HEWL Design 6, scFv on yeast surface (scFv, V domains shown, not shown: large carriers; small tags and cut ends)
VH: EVQLVQSGAEVKKPGATVKISCKVSGYTFSTYWMEWVQQAPGKGLEWMGEVLPGSGSTYYAEKFQGRVTITADTSTDTAYMELSSLRSEDTAVYYCARGDGYFQHWGQGTLVTVSS
VL: EIVLTQSPDFQSVTPKEKVTITCRASQSISSNLHWYQQKPDQSPKLLIKYASQSFSGVPSRFSGSGSGTDFTLTINSLEAEDAATYYCHQSNSWPRTFGPGTKVDIK
notes: also called Des6 (scFv format)
binding result [1]: binds

B2: Anti-HEWL Design 1, human Fab (Fab, V domains shown)
VH: B1 VH
VL: DIQMTQSPSSLSASVGDRVTITCRASQSISSNLNWYQQKPGKAPKLLIYYASSLQSGVPSRFSGSGSGTDFTLTISSLQPEDFATYYCQQSNSWPRTFGPGTKVDIKR
notes: The Fab heavy chain ends in a His tag; also called hαHEWL; design 1 (Fab)
Kd [2]: 41.6 nM

B3: Anti-HEWL Design 1, human IgG1 (antibody, V domains shown)
VH: B1 VH
VL: B2 VL
notes: also called Des 1; Des1
Kd [3]: 11 nM

B4: Anti-PSA Design 1 (humanized clone 10) (antibody, V domains shown)
VH: QVQLVQSGAEVKKPGSSVKVSCKASGYSFTDYNMNWVRQAPGQGLEWIGVISPDYGTPSYAQKFQGRVTITADESTSTAYMELSSLRSEDTAVYYCARGKGNYVVFAYWGQGTLVTVSS
VL: DIQMTQSPSSLSASVGDRVTITCKASQSVVNNVVWYQQKPGKAPKLLIYYASNRYSGVPSRFSGSGSGTDFTLTISSLQPEDFATYYCQQHYTSPLTFGPGTKVDIKR
notes: Full-length human IgG1/kappa chains; also called PSA1
binding result [4]: binds

B5: Anti-PSA Design 2 (humanized clone 10) (antibody, V domains shown)
VH: B4 VH
VL: DIVMTQTPLSLSVTPGQPASISCKASQSVVNNVVWYLQKPGQPPQLLIYYASNRYSGVPDRFSGSGSGTDFTLKISRVEAEDVGVYYCQQHYTSPLTFGPGTKVDIKR
notes: Full-length human IgG1/kappa chains; also called PSA2
binding result [4]: binds

B6: Anti-PSA Design 3 (humanized clone 10) (antibody, V domains shown)
VH: B4 VH with Q1E, S16A, S17T, V20I, A24V, R38Q, Q43K, Q62E, E74T, S77D
VL: DIVMTQSPDSLAVSLGERATINCKASQSVVNNVVWYQQKPGQPPKLLIYYASNRYSGVPDRFSGSGSGTDFTLTISSLQAEDVAVYYCQQHYTSPLTFGPGTKVDIKR
notes: Full-length human IgG1/kappa chains; also called PSA3
binding result [4]: binds

B7: Anti-PSA Design 4 (humanized clone 10) (antibody, V domains shown)
VH: QVQLQESGPGLVKPSETLSLTCTVSGYSFTDYNMNWIRQPPGKGLEWIGVISPDYGTPSYNPSLKSRVTISVDTSKNQFSLKLSSVTAADTAVYYCARGKGNYVVFAYWGQGTLVTVSS
VL: B4 VL with D70E
notes: Full-length human IgG1/kappa chains; also called PSA4
binding result [5]: binds
binding result [6]: binds

B8: Anti-PSA Design 5 (humanized clone 10) (antibody, V domains shown)
VH: B4 VH with Q1E, S16A, S17T, V20I, A24V, R38Q, Q43K, Q62E, E74T, S77D
VL: B4 VL with D70E
notes: Full-length human IgG1/kappa chains; also called PSA5
binding result [5]: binds
